According to the Human Domainome abundance scans (Beltran et al. 2025):
± gives the uncertainty stated by the source.

B1: FERM and PDZ domain-containing protein 4, residues 75 to 154; numbered along this chain, Q14CM0 (parent)
chain: APRKVEMRRDPVLGFGFVAGSEKPVVVRSVTPGGPSEGKLIPGDQIVMINDEPVSAAPRERVIDLVRSCKESILLTVIQP

Variants of: B1
Test: abundance fitness (aPCA) (normalised: wild type 0, dead -1); higher = more abundant; growth selection in yeast, the domain comes from the species named
Details: Homo sapiens

Abundance fitness, by site and new letter:
V26: Y -0.123 ± 0.043 | G -0.446 ± 0.023 | D -0.135 ± 0.039 | I -0.025 ± 0.043 | T 0.008 ± 0.028 | S -0.116 ± 0.025 | K -0.048 ± 0.028 | M -0.012 ± 0.032 | E -0.036 ± 0.026 | P -0.702 ± 0.042 | L -0.038 ± 0.024 | F -0.123 ± 0.043 | H -0.159 ± 0.044 | A -0.113 ± 0.025 | Q -0.011 ± 0.03 | C -0.07 ± 0.033 | W -0.379 ± 0.029
S29: C -0.136 ± 0.03 | R -0.069 ± 0.02 | W -0.22 ± 0.024 | M -0.083 ± 0.029 | K -0.059 ± 0.032 | L -0.152 ± 0.023 | T -0.029 ± 0.027 | A -0.074 ± 0.024 | Q -0.026 ± 0.027 | I -0.221 ± 0.047 | P -0.826 ± 0.044 | Y -0.189 ± 0.039 | E 0.007 ± 0.026 | N -0.032 ± 0.041 | H -0.139 ± 0.039 | D -0.034 ± 0.037 | V -0.136 ± 0.023 | G -0.055 ± 0.021 | F -0.197 ± 0.039
F17: V -0.704 ± 0.031 | T -0.887 ± 0.054 | W -0.218 ± 0.026 | Y -0.395 ± 0.052
P35: L -0.857 ± 0.044 | K -0.59 ± 0.047 | T -0.543 ± 0.039 | G -0.661 ± 0.032 | I -0.622 ± 0.088 | R -0.486 ± 0.025 | C -0.435 ± 0.05 | E -0.35 ± 0.037 | M -0.355 ± 0.038 | Q -0.33 ± 0.038 | D -0.737 ± 0.07 | V -0.331 ± 0.028 | S -0.394 ± 0.033 | Y -0.708 ± 0.091 | A -0.202 ± 0.028 | N -0.213 ± 0.053 | W -1.08 ± 0.074
E37: G -0.173 ± 0.021 | C -0.046 ± 0.033 | F -0.103 ± 0.038 | H -0.09 ± 0.045 | D -0.028 ± 0.035
G34: I -0.957 ± 0.13 | C -0.552 ± 0.041 | H -0.543 ± 0.077 | P -0.92 ± 0.058 | L -0.595 ± 0.032 | F -0.765 ± 0.081 | N -1.07 ± 0.13 | K -1.02 ± 0.084 | T -0.066 ± 0.03 | W -1.1 ± 0.063 | M -0.692 ± 0.051 | Q -0.802 ± 0.054 | R -0.954 ± 0.039 | D -0.84 ± 0.061 | E -0.999 ± 0.065 | Y -0.867 ± 0.093 | A -0.157 ± 0.025 | V -0.962 ± 0.042 | S -0.001 ± 0.025
K23: V -0.136 ± 0.026 | I -0.085 ± 0.05 | F -0.066 ± 0.04 | C -0.035 ± 0.035 | P -0.317 ± 0.033 | A -0.097 ± 0.026 | N 0.015 ± 0.041 | T -0.037 ± 0.031 | H -0.026 ± 0.043 | D -0.042 ± 0.039 | W -0.076 ± 0.028 | L -0.066 ± 0.025 | Q -0.039 ± 0.034 | M -0.01 ± 0.032
P24: E -0.51 ± 0.036 | I -0.777 ± 0.08 | V -0.725 ± 0.034 | D -0.433 ± 0.05 | Q -0.472 ± 0.041 | N -0.333 ± 0.054 | K -0.64 ± 0.049 | M -0.53 ± 0.042 | W -0.947 ± 0.049 | F -0.686 ± 0.076 | L -0.77 ± 0.037 | S -0.48 ± 0.031 | H -0.501 ± 0.05 | R -0.572 ± 0.025 | T -0.471 ± 0.037 | Y -0.691 ± 0.081 | C -0.51 ± 0.045 | A -0.448 ± 0.029 | G -0.329 ± 0.022
R28: V -0.089 ± 0.022 | A -0.032 ± 0.023 | N 0.001 ± 0.038 | T 0.005 ± 0.029 | C -0.136 ± 0.032 | D -0.038 ± 0.034 | E 0.034 ± 0.025 | P -0.725 ± 0.052 | G -0.014 ± 0.02 | K -0.002 ± 0.03 | H -0.08 ± 0.039 | Q 0.027 ± 0.031 | M -0.065 ± 0.029 | L -0.036 ± 0.024 | F -0.134 ± 0.043 | Y -0.137 ± 0.037
S21: G 0.043 ± 0.022 | R -0.082 ± 0.022 | W -0.088 ± 0.027 | T -0.12 ± 0.031 | L -0.049 ± 0.026 | D -0.003 ± 0.036 | K -0.009 ± 0.033 | A 0.005 ± 0.025 | F -0.021 ± 0.037 | N -0.002 ± 0.047 | V -0.25 ± 0.026 | I -0.234 ± 0.059 | H -0.028 ± 0.048 | M -0.033 ± 0.034 | P -0.169 ± 0.031 | C -0.047 ± 0.033
V18: Y -0.078 ± 0.046 | W -0.38 ± 0.03 | M -0.075 ± 0.034 | G -0.112 ± 0.02 | D -0.055 ± 0.035 | N -0.104 ± 0.049 | H -0.048 ± 0.048 | C -0.041 ± 0.032 | P -1.03 ± 0.073 | S -0.095 ± 0.027 | L -0.142 ± 0.025 | E -0.019 ± 0.025 | A -0.058 ± 0.023 | F -0.255 ± 0.044 | T -0.092 ± 0.028 | K -0.118 ± 0.032 | I -0.01 ± 0.038
E22: Y -0.012 ± 0.044 | A -0.075 ± 0.024 | V -0.066 ± 0.024 | H -0.202 ± 0.051 | S -0.126 ± 0.025 | Q -0.029 ± 0.035 | P -0.979 ± 0.086 | I -0.336 ± 0.05 | N -0.125 ± 0.048 | C -0.074 ± 0.034 | W -0.305 ± 0.029 | T -0.156 ± 0.034 | G -0.026 ± 0.021 | L -0.315 ± 0.028 | K -0.199 ± 0.035 | M -0.22 ± 0.035
A19: M 0.003 ± 0.033 | H -0.03 ± 0.046 | Y -0.081 ± 0.043 | G -0.074 ± 0.021 | Q -0.084 ± 0.033 | F -0.016 ± 0.04 | N -0.286 ± 0.048 | I 0.021 ± 0.048 | T -0.005 ± 0.03 | K -0.594 ± 0.045 | L 0.045 ± 0.024 | P -0.029 ± 0.029 | W -0.045 ± 0.03 | V 0.003 ± 0.024 | R -0.83 ± 0.034 | S -0.066 ± 0.026 | C -0.001 ± 0.037 | E -0.075 ± 0.028
S36: A 0.032 ± 0.023 | R -1.07 ± 0.042 | Q -0.81 ± 0.052 | F -0.742 ± 0.067 | C -0.051 ± 0.032 | G -0.05 ± 0.022 | V -0.668 ± 0.033 | Y -0.927 ± 0.096 | E -0.866 ± 0.05 | L -0.867 ± 0.041 | T -0.477 ± 0.031 | D -0.826 ± 0.072 | M -0.567 ± 0.041 | N -0.606 ± 0.062 | K -1.1 ± 0.087 | H -0.741 ± 0.074
V30: S -0.743 ± 0.035 | W -0.756 ± 0.037 | I -0.081 ± 0.035 | T -0.089 ± 0.029 | M -0.335 ± 0.035 | C -0.102 ± 0.031 | Q -0.801 ± 0.052 | H -0.967 ± 0.1 | A -0.499 ± 0.026 | P -0.864 ± 0.055 | K -0.87 ± 0.056 | R -0.914 ± 0.031 | F -0.416 ± 0.051 | Y -0.521 ± 0.049 | L -0.115 ± 0.024 | E -0.901 ± 0.048 | D -0.804 ± 0.065
G20: Q -0.03 ± 0.033 | H -0.029 ± 0.047 | F -0.155 ± 0.045 | D 0.017 ± 0.032 | E 0.01 ± 0.027 | I -0.051 ± 0.05 | L -0.116 ± 0.025 | T -0.061 ± 0.029 | C -0.094 ± 0.033 | K -0.093 ± 0.032 | S -0.002 ± 0.025 | N -0.089 ± 0.047 | W -0.105 ± 0.026 | Y -0.067 ± 0.04
V27: M -0.799 ± 0.063 | K -0.916 ± 0.073 | D -0.802 ± 0.065 | L -0.584 ± 0.031 | C -0.282 ± 0.038 | W -1.1 ± 0.068 | I -0.07 ± 0.039 | S -0.947 ± 0.053 | R -0.958 ± 0.037 | Y -1.02 ± 0.17 | E -0.725 ± 0.043 | H -0.878 ± 0.14 | A -0.591 ± 0.033 | T -0.705 ± 0.053 | N -0.851 ± 0.099 | G -0.938 ± 0.032 | F -0.79 ± 0.092 | P -0.764 ± 0.058
G33: E -0.112 ± 0.03 | D -0.024 ± 0.039 | Q -0.122 ± 0.034 | A -0.055 ± 0.025 | V -0.328 ± 0.027 | S -0.088 ± 0.025 | N -0.089 ± 0.048 | P -0.871 ± 0.055 | H -0.101 ± 0.045 | M -0.124 ± 0.033 | W -0.228 ± 0.029 | F -0.116 ± 0.046 | L -0.104 ± 0.024 | T -0.157 ± 0.031 | R -0.104 ± 0.022 | I -0.332 ± 0.055 | K -0.064 ± 0.033
T31: S -0.001 ± 0.023 | D -0.058 ± 0.036 | L -0.168 ± 0.023 | H -0.016 ± 0.029 | F -0.149 ± 0.033 | A -0.045 ± 0.025 | C -0.108 ± 0.033 | E -0.013 ± 0.032 | Y -0.117 ± 0.031 | N -0.055 ± 0.029 | R -0.034 ± 0.023 | W -0.196 ± 0.032 | M -0.067 ± 0.032 | P -0.59 ± 0.036 | G -0.222 ± 0.029 | V -0.058 ± 0.025 | Q -0.029 ± 0.028 | K -0.012 ± 0.029 | I -0.175 ± 0.03
V25: I -0.116 ± 0.036 | K -0.889 ± 0.068 | F -0.127 ± 0.035 | N -0.23 ± 0.046 | C -0.005 ± 0.032 | T 0.004 ± 0.031 | H -0.135 ± 0.043 | E -0.796 ± 0.047 | S 0 ± 0.026 | Y -0.144 ± 0.047 | G -0.467 ± 0.025 | M 0.157 ± 0.046 | W -0.078 ± 0.028 | R -0.326 ± 0.023 | A -0.052 ± 0.026 | L 0.006 ± 0.024 | Q -0.373 ± 0.034 | D -0.535 ± 0.048
P32: F -0.206 ± 0.033 | D -0.075 ± 0.032 | R -0.05 ± 0.024 | W -0.247 ± 0.037 | H -0.046 ± 0.028 | G -0.098 ± 0.028 | Y -0.136 ± 0.031 | S -0.032 ± 0.024 | V -0.051 ± 0.025 | M -0.039 ± 0.031 | I -0.08 ± 0.031 | N -0.058 ± 0.029 | A -0.029 ± 0.026 | K -0.027 ± 0.029 | Q -0.018 ± 0.03 | E -0.037 ± 0.034 | L -0.083 ± 0.023 | T -0.036 ± 0.026
